For orientation: stoichiometry N means a count of units in the complex or per binding partner.

Holding throughout (conditions): both partners purified
The target in assay [1] is T1, recombinant human MT1-MMP catalytic domain (human, UniProt P50281 114-287).
T1 construct: MT1-MMP (MMP14), human, catalytic domain (20 kDa); PDB 1BQQ chain M is the catalytic domain structure used for the docking, not necessarily the same limits; also called Membrane type 1 metalloproteinase; MMP14
The assay is described as follows: atomic force microscopy (single-molecule recognition force spectroscopy); peptide covalently on the AFM tip through NHS-PEG18-aldehyde; MT1-MMP immobilised on APTES-treated mica; PBS; 25 °C; control with free excess peptide (1 mmol/L).

Assay [2] deals with T1, recombinant human MT1-MMP catalytic …. In words: ITC; MicroCal ITC-200, 25 °C, 10 mM HEPES, 150 mM NaCl, pH 7.4; results and legend: peptides injected into MT1-MMP; methods: MT1-160p (1 mM) in the syringe into binding peptides (0.1 mM) in the cell; one-site binding model.
For the next assay, the target named is T2, MT1-160p (human).
T2 construct: peptide of MT1-MMP (MMP14) that holds the MT-Loop (Tyr164-Gln174); source: synthetic peptide, bought: GL Biochem Ltd. (Shanghai)
T2 peptide: REVPYAYIREGHEKQ
In words: atomic force microscopy (single-molecule recognition force spectroscopy); peptide covalently on the AFM tip through NHS-PEG18-aldehyde; MT1-160p immobilised on APTES-treated mica; PBS.

B1: MT1-AF7p-H4R (peptide)
peptide: HWKRLHNTKTFL
notes: MT1-AF7p with histidine 4 changed to arginine (rational design by docking); In the AFM experiments coupled covalently to the tip through an NHS-PEG18-aldehyde linker; also called optimized peptide; peptidomimetic; source: synthetic peptide, bought: GL Biochem Ltd. (Shanghai)
With B1, in assay [1], the “retraction force (peak position of the histogram)” value (“retraction force” below) is 260 pN. Further, in assay [2], the Ka was 175000 M⁻¹, the dH was -0.29 kcal/mol and the “stoichiometry N” value amounted to 1.14. For the same molecule, the binding result in the assay with MT1-160p is on record as “binds”.

B2: MT1-AF7p (peptide)
peptide: HWKHLHNTKTFL
notes: In the AFM experiments coupled covalently to the tip through an NHS-PEG18-aldehyde linker; In the in vivo imaging Cy5.5 was conjugated to the N-terminus; also called original peptide; original ligand; source: synthetic peptide (solid-phase, Fmoc chemistry, HPLC purified)
Take B2: the “retraction force” value in assay [1] was determined as 150 pN. In assay [2], the Ka came out at 107000 M⁻¹. The binding result with MT1-160p was “binds”.

B3: MT1-AF7p-H4K (peptide)
peptide: HWKKLHNTKTFL
notes: MT1-AF7p with histidine 4 changed to lysine (rational design by docking); In the AFM experiments coupled covalently to the tip through an NHS-PEG18-aldehyde linker; also called optimized peptide; peptidomimetic; source: synthetic peptide, bought: GL Biochem Ltd. (Shanghai)
In the case of B3, in assay [1], the “retraction force” value was determined as 166 pN. The binding result with MT1-160p is given as “binds”.

Values taken from paper PMC6037669, “Optimization of a MT1-MMP-targeting Peptide and Its Application in Near-infrared Fluorescence Tumor Imaging” (Scientific Reports, 2018).
